# T1: Human B7-H3-ECD (His tag) (human, UniProt Q5ZPR3 29-461)
# T1 construct: SPR analyte; also called huB7-H3; soluble ECD of human B7-H3
# T1 sequence: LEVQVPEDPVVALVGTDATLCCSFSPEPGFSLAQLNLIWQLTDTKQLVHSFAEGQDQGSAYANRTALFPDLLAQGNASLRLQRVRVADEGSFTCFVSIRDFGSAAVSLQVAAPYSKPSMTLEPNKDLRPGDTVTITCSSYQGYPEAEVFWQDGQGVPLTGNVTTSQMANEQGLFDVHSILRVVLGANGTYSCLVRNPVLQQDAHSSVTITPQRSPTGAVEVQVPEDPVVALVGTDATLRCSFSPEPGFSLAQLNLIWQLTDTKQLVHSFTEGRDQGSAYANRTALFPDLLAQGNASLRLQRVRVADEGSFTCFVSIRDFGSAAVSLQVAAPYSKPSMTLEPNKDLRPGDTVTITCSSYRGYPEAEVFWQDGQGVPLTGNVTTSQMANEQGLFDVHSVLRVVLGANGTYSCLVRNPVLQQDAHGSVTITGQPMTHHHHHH
# T2: Mouse B7-H3 on cells (mouse, UniProt Q8VE98 29-316)
# T2 construct: whole, on cells
# T2 sequence (looked up): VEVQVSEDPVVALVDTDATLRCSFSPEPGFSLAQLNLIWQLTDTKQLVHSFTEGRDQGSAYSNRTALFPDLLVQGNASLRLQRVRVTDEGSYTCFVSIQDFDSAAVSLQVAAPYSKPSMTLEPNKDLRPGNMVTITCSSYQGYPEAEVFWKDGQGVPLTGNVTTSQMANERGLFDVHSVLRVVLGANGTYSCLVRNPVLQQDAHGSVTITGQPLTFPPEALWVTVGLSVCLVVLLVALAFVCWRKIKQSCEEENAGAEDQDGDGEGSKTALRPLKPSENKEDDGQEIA
# T3: Human full length B7-H3 (human, UniProt Q5ZPR3 29-534)
# T3 construct: On 3T12 fibroblasts expressing full length human B7-H3 or on NCI-H1650 cells; signal peptide residues 1-28 stated; also called huB7-H3; CD276
# T3 sequence: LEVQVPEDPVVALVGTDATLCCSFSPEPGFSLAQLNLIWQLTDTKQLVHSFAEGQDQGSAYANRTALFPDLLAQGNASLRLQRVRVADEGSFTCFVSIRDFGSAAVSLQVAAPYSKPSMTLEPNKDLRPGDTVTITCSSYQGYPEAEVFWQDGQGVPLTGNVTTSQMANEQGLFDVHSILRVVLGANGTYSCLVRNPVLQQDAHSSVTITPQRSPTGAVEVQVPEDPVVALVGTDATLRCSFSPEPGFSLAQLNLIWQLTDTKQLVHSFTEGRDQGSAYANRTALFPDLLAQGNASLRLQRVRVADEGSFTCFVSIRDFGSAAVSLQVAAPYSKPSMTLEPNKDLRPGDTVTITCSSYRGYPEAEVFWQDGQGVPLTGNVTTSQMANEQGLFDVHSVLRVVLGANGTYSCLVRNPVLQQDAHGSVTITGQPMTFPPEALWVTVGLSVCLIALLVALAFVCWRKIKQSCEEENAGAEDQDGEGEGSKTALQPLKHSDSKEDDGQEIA
# T4: Cyno B7-H3-ECD (his tag) (cynomolgus)
# T4 construct: SPR analyte; also called soluble ECD of cyno B7-H3
# T4 chain: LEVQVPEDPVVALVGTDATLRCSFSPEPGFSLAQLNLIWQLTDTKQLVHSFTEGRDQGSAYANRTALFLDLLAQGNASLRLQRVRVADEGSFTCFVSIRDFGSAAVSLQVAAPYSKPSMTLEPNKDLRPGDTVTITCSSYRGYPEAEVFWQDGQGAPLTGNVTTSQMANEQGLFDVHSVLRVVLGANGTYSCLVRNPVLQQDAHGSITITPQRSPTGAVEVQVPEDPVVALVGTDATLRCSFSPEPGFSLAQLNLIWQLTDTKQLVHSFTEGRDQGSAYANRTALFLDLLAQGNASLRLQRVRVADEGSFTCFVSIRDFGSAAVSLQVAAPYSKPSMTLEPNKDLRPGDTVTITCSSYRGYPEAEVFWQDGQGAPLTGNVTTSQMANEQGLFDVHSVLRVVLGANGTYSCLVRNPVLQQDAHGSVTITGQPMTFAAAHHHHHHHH
# Key:
# [1] = molecular target: T1, Human B7-H3-ECD (His tag); assay: SPR, mAb captured, ECD analyte
# [2] = molecular target: T5, Cynomolgous B7-H3 on cells (cynomolgus); assay: FACS, 3T12 transfectants
# T5 construct: whole, on cells; also called cyB7-H3; cyno B7-H3
# Procedure: (§1) A selection of hits were subcloned using the MoFlo (Beckman, Indianapolis, Ind., US) by depositing a single cell per well into 96 well cell culture plates to ensure clonality of the cell line. Resulting colonies were screened for specificity by FACS using mouse 3T12 fibroblast cell lines expressing the human B7-H3, cynomolgous B7-H3 or mouse B7-H3. Isotype of each monoclonal antibody was determined using the Mouse Monoclonal Isostyping Kit (Roche, No. 11-493-027-001, Indianapolis, Ind., USA).
# [3] = molecular target: T2, Mouse B7-H3 on cells; assay: FACS, 3T12 transfectants
# Procedure: as §1
# [4] = molecular target: T3, Human full length B7-H3; assay: FACS, 3T12 transfectants
# Procedure: as §1
# [5] = molecular target: T4, Cyno B7-H3-ECD (his tag); assay: SPR, mAb captured, ECD analyte
Binder,Kd [1],koff [1],kon [1],EC50 [2],EC50 [3],EC50 [4],Kd [5],koff [5],kon [5],binding result [5],binding result [3]
"Ab9 (antibody, V domains shown) VH: QVQLQQSGAEVKKPGSSVKVSCKASGGTFSSYAISWVRQAPGQGLEWMGGIIPILGIANYAQKFQGRVTITADESTSTAYMELSSLRSEDTAVYYCARGGSGSYHMDVWGKGTTVTVSS VL: EIVLTQSPATLSLSPGERATLSCRASQSVSSYLAWYQQKPGQAPRLLIYDASNRATGIPARFSGSGSGTDFTLTISSLEPEDFAVYYCQQRSNWPPRITFGQGTRLEIKR",17 nM,0.0011 s⁻¹,66000 M⁻¹ s⁻¹,259 nM,0.72 nM,4.49 nM,,,,,
"Ab5 (antibody, mouse IgG1, V domains shown, mouse IgG1/k) VH: QVQLQQPGDELVKPGASVKLSCKTSGYTFTTDWMHWVKQRPGQGLEWIGMIHPNSGTTNYNEKFKSKAALTVDKSSSTACMQLSSLTSEDSAVYYCARSYWKWYFDVWGTGTTVTVSS VL: QIVLTQSPAIMSASLGEEITLTCSASSSVSYMHWYQQKSGTSPKLLIYSTSNLASGVPSRFSGSGSGTFYSLTISSVEAEDSADYYCHQWTSYMYTFGGGTKLEIK",9.2 nM,0.012 s⁻¹,1.3e+06 M⁻¹ s⁻¹,1.91 nM,6.01 nM,2.71 nM,200 nM,0.28 s⁻¹,1.4e+06 M⁻¹ s⁻¹,,
"Ab8 (antibody, mouse IgG1, V domains shown, mouse IgG1/k) VH: EVKLVESGGGLVKPGGSLKLSCAASGFTFSSYGMSWVRQTPEKRLEWVATISGGGNYTYCPDSVKGRFTISRDNAKNNLYLQMSSLRSEDTALYYCTRQRGYDYHYAMDFWGQGTSVTVSS VL: DIQMTQSPASLSVSVGETVTITCRASENIYSNLAWHQQKQGKSPQLLVYAATNLADGVPSRFSGNGSDTQYSLKINSLQSEDFGSYFCQNFWGTSWTFGGGTKLEIK",1.7 nM,9.9e-05 s⁻¹,58000 M⁻¹ s⁻¹,8.63 nM,193 nM,3.83 nM,1.7 nM,0.00026 s⁻¹,160000 M⁻¹ s⁻¹,,
"Ab7 (antibody, mouse IgG1, V domains shown, mouse IgG1/k) VH: EVQLVESGENLVKPGGSLKLSCAASGFSFRGYGMSWVRQTPDKRLEWVAAISTGGNYTYYPDSVQGRFTISRDNANNTLYLQMSSLKSEDTAMYYCARRGGNYAGFAYWGQGTLVTVSA VL: DIQMTQSPASLSVSVGETVTITCRPSENIYSNLAWYQQKQGKSPQLLVYAATNLADGVPSRFSGSGSGTQYSLKINSLQSEDFGTYYCQHFWGTPFTFGSGTKLEIK",,,,2.67 nM,67.1 nM,3.22 nM,,,,binds,
"Ab18 (antibody, mouse IgG1, V domains shown, mouse IgG1/k) VH: QVQLQQSAAELARPGASVKMSCKASGYSFTSYTIHWVKQRPGQGLEWIGYINPNSRNTDYNQKFKDETTLTADRSSSTAYMQLISLTSEDSAVYYCARYSGSTPYWYFDVWGAGTTVTVSS VL: QIVLTQSPAILSASPGEKVTMTCRASSSVSYMNWYQQKPGSSPKPWIYATSNLASGVPARFSVSVSGTSHSLTISRVEAEDAATYYCQQWSSNPLTFGAGTKLELK",0.17 nM,3.6e-05 s⁻¹,210000 M⁻¹ s⁻¹,6.49 nM,,5.98 nM,0.12 nM,2.9e-05 s⁻¹,240000 M⁻¹ s⁻¹,,no binding
